T1: CPSF7 (human, UniProt Q8N684 1-471)
T1 construct: also called NP_001129512.1 (+5)
T1 sequence (looked up): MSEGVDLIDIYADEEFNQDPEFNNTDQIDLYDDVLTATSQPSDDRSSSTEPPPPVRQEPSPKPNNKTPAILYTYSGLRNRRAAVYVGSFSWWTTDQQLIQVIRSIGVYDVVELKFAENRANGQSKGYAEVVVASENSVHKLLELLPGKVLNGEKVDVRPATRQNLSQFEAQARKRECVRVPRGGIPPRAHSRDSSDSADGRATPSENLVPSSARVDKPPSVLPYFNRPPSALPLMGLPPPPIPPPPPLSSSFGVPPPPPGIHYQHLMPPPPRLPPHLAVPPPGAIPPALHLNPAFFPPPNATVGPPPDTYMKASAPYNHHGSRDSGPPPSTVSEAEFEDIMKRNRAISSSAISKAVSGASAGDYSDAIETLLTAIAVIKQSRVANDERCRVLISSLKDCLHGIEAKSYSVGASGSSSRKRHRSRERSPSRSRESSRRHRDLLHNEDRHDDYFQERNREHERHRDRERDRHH

T2: SRSF6 (human, UniProt Q13247 1-344)
T2 construct: also called NP_006266.2
T2 sequence (looked up): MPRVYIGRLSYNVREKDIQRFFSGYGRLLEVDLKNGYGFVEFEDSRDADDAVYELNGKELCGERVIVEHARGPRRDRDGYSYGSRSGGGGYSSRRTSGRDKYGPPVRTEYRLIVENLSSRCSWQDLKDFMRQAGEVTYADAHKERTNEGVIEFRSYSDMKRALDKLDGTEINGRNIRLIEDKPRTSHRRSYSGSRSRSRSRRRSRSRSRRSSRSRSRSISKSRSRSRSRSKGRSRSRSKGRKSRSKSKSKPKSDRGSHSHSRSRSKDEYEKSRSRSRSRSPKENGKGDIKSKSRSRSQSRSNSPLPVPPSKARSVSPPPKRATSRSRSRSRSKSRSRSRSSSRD

T3: SBSN (human, UniProt Q6UWP8 26-590)
T3 construct: also called NP_00159506.1 (+2)
T3 sequence (looked up): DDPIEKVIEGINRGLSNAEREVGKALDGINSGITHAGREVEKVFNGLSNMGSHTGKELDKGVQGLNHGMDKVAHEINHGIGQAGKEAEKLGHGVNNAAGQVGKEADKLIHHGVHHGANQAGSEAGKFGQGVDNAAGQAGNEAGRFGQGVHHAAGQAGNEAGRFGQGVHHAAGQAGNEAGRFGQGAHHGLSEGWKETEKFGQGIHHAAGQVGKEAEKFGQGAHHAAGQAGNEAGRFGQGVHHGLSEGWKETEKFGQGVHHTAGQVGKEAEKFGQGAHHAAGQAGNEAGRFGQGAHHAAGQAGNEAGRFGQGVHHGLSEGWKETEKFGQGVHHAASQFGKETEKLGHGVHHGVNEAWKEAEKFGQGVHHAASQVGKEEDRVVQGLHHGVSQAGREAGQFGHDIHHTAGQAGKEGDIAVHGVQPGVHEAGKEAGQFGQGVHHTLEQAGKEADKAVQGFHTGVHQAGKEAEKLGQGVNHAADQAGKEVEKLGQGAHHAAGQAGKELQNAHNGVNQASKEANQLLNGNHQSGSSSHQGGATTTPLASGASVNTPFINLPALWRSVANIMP


Experiments:
Test in all cases: co-IP with anti-FLAG, N-FLAG B3GNT2, mass spectrometry
[1] = biological target: T4, PKM (human, UniProt P14618 2-531, limits assumed)
T4 construct: also called NP_001193725.1 (+3)
T4 sequence (P14618 2-531 limits assumed): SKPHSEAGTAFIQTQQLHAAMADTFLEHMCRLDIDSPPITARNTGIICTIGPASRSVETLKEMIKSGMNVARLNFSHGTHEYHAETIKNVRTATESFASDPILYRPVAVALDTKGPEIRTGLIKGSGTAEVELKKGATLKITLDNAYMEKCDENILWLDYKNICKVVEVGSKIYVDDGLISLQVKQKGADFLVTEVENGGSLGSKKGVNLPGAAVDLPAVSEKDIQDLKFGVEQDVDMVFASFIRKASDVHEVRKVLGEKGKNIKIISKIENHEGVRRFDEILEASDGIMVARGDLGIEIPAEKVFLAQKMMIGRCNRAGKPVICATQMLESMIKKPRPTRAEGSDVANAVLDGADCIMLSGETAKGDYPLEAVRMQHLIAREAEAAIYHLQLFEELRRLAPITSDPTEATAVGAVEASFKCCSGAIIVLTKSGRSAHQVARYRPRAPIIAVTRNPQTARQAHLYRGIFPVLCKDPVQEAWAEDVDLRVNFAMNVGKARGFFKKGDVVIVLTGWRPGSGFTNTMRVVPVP

[2] = biological target: T5, TPM3 (human, UniProt P06753-2 2-248)
T5 construct: also called NP_705935.1
T5 sequence (P06753 other isoform, or with tags, fused parts or gaps limits assumed): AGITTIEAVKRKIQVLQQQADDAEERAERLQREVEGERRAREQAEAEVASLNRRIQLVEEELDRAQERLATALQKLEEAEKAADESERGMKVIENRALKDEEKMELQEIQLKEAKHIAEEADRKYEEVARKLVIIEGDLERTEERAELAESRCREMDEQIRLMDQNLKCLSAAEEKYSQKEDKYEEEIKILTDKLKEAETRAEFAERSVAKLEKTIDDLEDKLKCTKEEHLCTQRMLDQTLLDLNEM

[3] = biological target: RPS26 (human, UniProt P62854 2-115)
[4] = biological target: T1, CPSF7
[5] = biological target: T2, SRSF6
[6] = biological target: T3, SBSN
[7] = biological target: T6, ARPC1B (human, UniProt O15143 2-372)
T6 construct: also called NP_005711.1

| Binder | co-IP mass spectrometry count [1] | co-IP mass spectrometry count [2] | co-IP mass spectrometry count [3] | co-IP/MS count, N-term FLAG [4] | co-IP/MS count, N-term FLAG [5] | co-IP/MS count, N-term FLAG [6] | co-IP/MS count, N-term FLAG [7] |
| --- | --- | --- | --- | --- | --- | --- | --- |
| N-terminal FLAG tagged B3GNT2 (enzyme, human, UniProt Q9NY97 1-397, looked up, FLAG-tagged ORF overexpressed in cells; pulled down from lysate with mouse anti-FLAG; also called N-FLAG B3GNT2; N-term FLAG; not shown: N-terminal FLAG tag) MSVGRRRIKLLGILMMANVFIYFIMEVSKSSSQEKNGKGEVIIPKEKFWKISTPPEAYWNREQEKLNRQYNPILSMLTNQTGEAGRLSNISHLNYCEPDLRVTSVVTGFNNLPDRFKDFLLYLRCRNYSLLIDQPDKCAKKPFLLLAIKSLTPHFARRQAIRESWGQESNAGNQTVVRVFLLGQTPPEDNHPDLSDMLKFESEKHQDILMWNYRDTFFNLSLKEVLFLRWVSTSCPDTEFVFKGDDDVFVNTHHILNYLNSLSKTKAKDLFIGDVIHNAGPHRDKKLKYYIPEVVYSGLYPPYAGGGGFLYSGHLALRLYHITDQVHLYPIDDVYTGMCLQKLGLVPEKHKGFRTFDIEEKNKNNICSYVDLMLVHSRKPQEMIDIWSQLQSAHLKC | 3 | 6 | 6 | – | – | – | – |
| N-terminal FLAG tagged B3GNT2 (enzyme, human, UniProt Q9NY97 1-397, looked up, FLAG-tagged ORF overexpressed in A375 cells; pulled down from the lysate with mouse anti-FLAG; also called N-FLAG B3GNT2; N-term FLAG; not shown: N-terminal FLAG tag) MSVGRRRIKLLGILMMANVFIYFIMEVSKSSSQEKNGKGEVIIPKEKFWKISTPPEAYWNREQEKLNRQYNPILSMLTNQTGEAGRLSNISHLNYCEPDLRVTSVVTGFNNLPDRFKDFLLYLRCRNYSLLIDQPDKCAKKPFLLLAIKSLTPHFARRQAIRESWGQESNAGNQTVVRVFLLGQTPPEDNHPDLSDMLKFESEKHQDILMWNYRDTFFNLSLKEVLFLRWVSTSCPDTEFVFKGDDDVFVNTHHILNYLNSLSKTKAKDLFIGDVIHNAGPHRDKKLKYYIPEVVYSGLYPPYAGGGGFLYSGHLALRLYHITDQVHLYPIDDVYTGMCLQKLGLVPEKHKGFRTFDIEEKNKNNICSYVDLMLVHSRKPQEMIDIWSQLQSAHLKC | – | – | – | 12 | 6 | 27 | 0 |

Source: patent publication US20240261333A1 (published 2024)
